According to patent US20050142568A1 (published 2005):

T1: ^35S-Methionine labeled CRN-3 (C. elegans, UniProt G5EBX6 1-876)
T1 sequence: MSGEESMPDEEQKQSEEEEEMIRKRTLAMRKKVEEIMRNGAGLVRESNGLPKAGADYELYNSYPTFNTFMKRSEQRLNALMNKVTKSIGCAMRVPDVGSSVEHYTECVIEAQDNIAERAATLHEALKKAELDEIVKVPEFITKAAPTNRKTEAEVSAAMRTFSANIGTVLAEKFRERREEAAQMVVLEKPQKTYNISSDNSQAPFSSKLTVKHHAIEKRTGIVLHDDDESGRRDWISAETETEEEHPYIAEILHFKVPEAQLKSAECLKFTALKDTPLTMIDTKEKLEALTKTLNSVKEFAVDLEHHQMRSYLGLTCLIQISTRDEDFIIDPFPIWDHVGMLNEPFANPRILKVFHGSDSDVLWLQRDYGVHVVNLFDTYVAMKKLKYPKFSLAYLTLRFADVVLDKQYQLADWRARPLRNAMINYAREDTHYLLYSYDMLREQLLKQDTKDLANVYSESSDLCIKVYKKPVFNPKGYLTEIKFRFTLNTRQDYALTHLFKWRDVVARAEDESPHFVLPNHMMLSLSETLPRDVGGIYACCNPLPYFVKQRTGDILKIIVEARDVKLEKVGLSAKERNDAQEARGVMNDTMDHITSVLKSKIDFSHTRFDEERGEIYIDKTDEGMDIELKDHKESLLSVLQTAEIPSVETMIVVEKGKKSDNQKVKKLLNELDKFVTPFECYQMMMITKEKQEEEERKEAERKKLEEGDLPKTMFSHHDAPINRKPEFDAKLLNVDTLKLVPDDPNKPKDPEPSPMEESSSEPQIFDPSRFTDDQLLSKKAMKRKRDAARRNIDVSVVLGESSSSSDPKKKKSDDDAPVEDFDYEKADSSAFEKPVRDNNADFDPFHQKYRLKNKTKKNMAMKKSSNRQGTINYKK

T2: GST-CRN-3 (C. elegans, UniProt G5EBX6 1-876)
T2 construct: also called CRN-3 GST-fusion protein; not shown: glutathione S-transferase tag encoded by vector pGEX4T-2
T2 sequence: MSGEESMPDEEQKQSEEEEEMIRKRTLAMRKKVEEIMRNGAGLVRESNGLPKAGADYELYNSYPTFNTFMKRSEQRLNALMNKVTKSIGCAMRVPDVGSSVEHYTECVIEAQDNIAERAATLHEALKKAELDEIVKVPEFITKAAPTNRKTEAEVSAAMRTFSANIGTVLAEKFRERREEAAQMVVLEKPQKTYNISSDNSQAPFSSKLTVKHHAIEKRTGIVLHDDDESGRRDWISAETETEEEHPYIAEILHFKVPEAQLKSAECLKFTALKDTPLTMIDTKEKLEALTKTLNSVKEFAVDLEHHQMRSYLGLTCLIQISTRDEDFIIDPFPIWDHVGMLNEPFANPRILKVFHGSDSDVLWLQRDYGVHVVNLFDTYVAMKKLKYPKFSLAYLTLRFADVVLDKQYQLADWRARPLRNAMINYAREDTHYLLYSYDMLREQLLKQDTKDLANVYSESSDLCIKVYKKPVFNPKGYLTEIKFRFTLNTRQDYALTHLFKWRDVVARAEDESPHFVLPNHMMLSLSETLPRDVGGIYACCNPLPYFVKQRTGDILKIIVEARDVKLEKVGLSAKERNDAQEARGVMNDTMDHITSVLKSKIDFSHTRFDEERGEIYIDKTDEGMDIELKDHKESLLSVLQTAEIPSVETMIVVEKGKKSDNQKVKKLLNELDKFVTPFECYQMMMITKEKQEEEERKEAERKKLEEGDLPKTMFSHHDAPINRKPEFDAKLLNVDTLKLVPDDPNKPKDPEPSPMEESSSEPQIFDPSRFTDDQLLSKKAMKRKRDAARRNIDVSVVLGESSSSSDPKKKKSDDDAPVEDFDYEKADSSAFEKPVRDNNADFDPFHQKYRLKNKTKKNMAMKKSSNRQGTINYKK

B1: GST-CRN-1 (other, C. elegans, UniProt Q9N3T2 21-382, looked up)
chain: NEMKAFFGRTVAIDASMCLYQFLIAVRQDGSQLQSEDGETTSHLMGMLNRTVRMFENGVKPVYVFDGKPPDMKGGELEKRSERRAEAEKALTEAKEKGDVKEAEKFERRLVKVTKQQNDEAKRLLGLMGIPVVEAPCEAEAQCAHLVKAGKVFGTVTEDMDALTFGSTVLLRHFLAPVAKKIPIKEFNLSLALEEMKLSVEEFIDLCILLGCDYCGTIRGVGPKKAVELIRQHKNIETILENIDQNKYPPPEDWPYKRARELFLNPEVTKPEEVELTWKEADVEGVIQFLCGEKNFNEERIRNALAKLKTSRKSGTQGRIDSFFGNSTKVTCVTAATKRKAEEAEKAKKGAKKGGPPKKRAK
notes: also called CRN-1 GST-fusion protein; not shown: glutathione S-transferase tag encoded by vector pGEX4T-2
B2: ^35S-Methionine labeled CRN-6 (enzyme, C. elegans, UniProt P34508-2 18-373, looked up)
chain: AYQCKDNNGSNVDWFVFYKLPHLWNHPDNVPISNGTGFLYFDVNNKNWKLMPQGMDVENNAVYYTLQQYYNSNMNTTFSYMYNDEWPDSTIWSNSSGHAKGVTVFDQYTGFWMIHSIPKFPSKDMFRFPSNAHYYGQMGICISYNTVSLATIAQQLFYYNTFTYQFNLPQSFANQFPVLSQLKNKEYNKSPPLTSTKVLKSLGGQHFRHFAKTGEWGKDLYSDFVGPTLKSSIKVETWNHQSGDEYNLPSVCDPNHVQSTMSAKYIRLPYAIDYSSYEDHSKFVVAYSESSSKPPIPYVCIGDINRQSHQIHRGGGTMCIYDQETYFQFANIISETVPCTKATAEKVDALANNRYF
modifications: 35S-methionine labelled
B3: GST-NUC-1 (other, C. elegans, UniProt Q17778 22-375, looked up)
chain: AFSCKDQSGNDVDWFAVYKMPIEKDDGSVTGLAGGVAWYYVDVNKKGTLTPSAKTLDDNDQAIAYTLQQYYDKQNDKTIFHVMYNDEPWGSKSTSGIKLEEILSNRVYSNYTHEDDSTSTAFGHTKGTIFFDGTSGVWLVHSVPLFPNPTKYEYPVSGHDYGQTMLCMTFKYAQLKSIGTQLFFNRPNIYSSNLPTNMAADNADLAKAIAGQYQKGQPFQSVIELETMAGYSFTNFAKSKEFNADLYDTLVAPTLKTDLVVETWRRGSEIPLDCKLTYHANDALSIHVGSTTAFSYTKDHSKMAHSADMTKPWVCIGDINRMTSQYVRGGGTTCISSSFLWKAYSVIATQNNCA
notes: also called NUC-1 GST-fusion protein; not shown: glutathione S-transferase tag encoded by vector pGEX4T-2

Key:
Assay in all cases: GST pull-down, 35S-Met protein vs GST fusion; - means no detectable binding (footnote a)
[1] = biological target: T1, ^35S-Methionine labeled CRN-3
Protocol: (§1) GST fusion protein pull-down assays were performed as described in J. Parrish, H. Metters, L. Chen, D. Xue, Proc. Natl. Acad. Sci. U.S.A. 97, 11916 (2000). Purified GST or GST-fusion proteins (5 μg each) immobilized on glutathione sepharose beads were incubated with ³⁵S-Methionine labeled proteins at 4° C. for 2 hours. The beads were washed extensively and the bound proteins were resolved on a 12% SDS-PAGE and visualized by autoradiography. [0103] cDNAs corresponding to the ORFs were cloned into the pPD129.36 vector via its Nhe I and Xho I sites or the Xho I site alone. Full-length cDNAs were subcloned into the pGEX4T-2 vector for generating GST fusion proteins and for further protein purification and into the pcDNA3.1 vector for in vitro transcription/translation experiments.
(§2) ^aInteractions were evaluated relative to background binding of ³⁵S-Methionine labeled Luciferase to GST-fusion proteins and ³⁵S-Methionine labeled proteins to GST. “−” indicates no detectable binding, “+” indicates an interaction consistently observed above background levels, and “++” indicates a strong interaction. ^bBecause ³⁵S-Methionine labeled CRN-1 binds GST tightly, it was not possible to evaluate interactions between ³⁵S-CRN-1 and various GST-fusion proteins. ND, not determined.

[2] = biological target: T3, GST (glutathione-S transferase alone) (UniProt P08515 1-218 = GST)
T3 construct: Purified GST used as negative control bait on glutathione sepharose beads; also called OST
Protocol: as §1, §2

GST-CRN-1 = biological target: B1
Protocol: as §1, §2

GST-CRN-6 = biological target: T4, GST-CRN-6 (C. elegans, UniProt P08515 1-218 = GST; P34508 1-373)
T4 construct: Two crn-6 cDNAs (700 bp and 1.1 kb) were isolated; the longer one made the GST fusion; also called CRN-6 GST-fusion protein
Protocol: as §1, §2

[3] = biological target: B2
Protocol: as §1, §2

GST-CRN-3 = biological target: T2, GST-CRN-3
Protocol: as §1, §2

GST-NUC-1 = biological target: B3
Protocol: as §1, §2

T3 sequence (P08515 whole entry): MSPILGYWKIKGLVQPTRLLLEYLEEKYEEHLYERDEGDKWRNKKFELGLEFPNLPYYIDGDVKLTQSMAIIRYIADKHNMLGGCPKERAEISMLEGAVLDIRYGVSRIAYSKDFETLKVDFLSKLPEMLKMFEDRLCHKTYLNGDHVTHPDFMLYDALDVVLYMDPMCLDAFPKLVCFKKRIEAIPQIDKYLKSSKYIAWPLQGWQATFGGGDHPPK

binding result (GST-CRN-1) | binding result (GST-CRN-6) | binding result (GST-CRN-3) | also measured | Binder
– | – | – | binding result [1]: no binding | B1
no binding | no binding | – | binding result [2]: no binding | ^35S-Methionine labeled CRN-5 (enzyme, C. elegans) MAGRLREMRCELSFLKNADGSACFSQGATCIWASCSGPGDVHASKASDEAMTLDISYRANCGDNKFNVLNNIIHSTLSNAINLELFPHTTISVTVHGIQDDGSMGAVAINGACFALLDNGMPFETVFCGVLIVRVKDELIIDPTAKQEAASTGRVLFSVCKGSDGHPEVCAMDAIGHWDFIQLEAAWSLAQPSASAIFDFYKTVMKRKLSVDEQ
– | – | – | binding result [3]: no binding | GST-CRN-5 (other, also called CRN-5 GST-fusion protein; not shown: GST carrier and the linker of vector pGEX4T-2) MAGRLREMRCELSFLKNADGSACFSQGATCIWASCSGPGDVHASKASDEAMTLDISYRANCGDNKFNVLNNIIHSTLSNAINLELFPHTTISVTVHGIQDDGSMGAVAINGACFALLDNGMPFETVFCGVLIVRVKDELIIDPTAKQEAASTGRVLFSVCKGSDGHPEVCAMDAIGHWDFIQLEAAWSLAQPSASAIFDFYKTVMKRKLSVDEQ
no binding | no binding | no binding | – | B2
no binding | no binding | – | binding result (GST-NUC-1): no binding | ^35S-Methionine labeled NUC-1 (enzyme, C. elegans, UniProt Q17778 22-375, looked up, 35S-methionine labelled) AFSCKDQSGNDVDWFAVYKMPIEKDDGSVTGLAGGVAWYYVDVNKKGTLTPSAKTLDDNDQAIAYTLQQYYDKQNDKTIFHVMYNDEPWGSKSTSGIKLEEILSNRVYSNYTHEDDSTSTAFGHTKGTIFFDGTSGVWLVHSVPLFPNPTKYEYPVSGHDYGQTMLCMTFKYAQLKSIGTQLFFNRPNIYSSNLPTNMAADNADLAKAIAGQYQKGQPFQSVIELETMAGYSFTNFAKSKEFNADLYDTLVAPTLKTDLVVETWRRGSEIPLDCKLTYHANDALSIHVGSTTAFSYTKDHSKMAHSADMTKPWVCIGDINRMTSQYVRGGGTTCISSSFLWKAYSVIATQNNCA
– | – | – | binding result [3]: no binding | B3
– | no binding | no binding | binding result [2]: no binding; binding result (GST-NUC-1): no binding | ^35S-Methionine labeled CYP-13 (enzyme, also called ^35S-CYP-13; CPY-13) not shown
– | no binding | no binding | – | ^35S-Methionine labeled CRN-4 (enzyme, C. elegans, UniProt Q10905 1-298, looked up, 35S-methionine labelled) MAYQHCPFDTLLILDFETTSDAANQDYPCEVIQFAIVAYDVPNDKIREDISFNKYVKPVLNRTLTKNCVDFTGIPQRSIDTADTFDVVYEQFQQWLITLGLEEGKFAFVCDSRQDLWRIAQYQMKLSNIQMPAFFRQYINLYKIFTNEMDRMGPKELSATTNIGKMNEYYDLPTIGRAHDAMDDCLNIATILQRMINMGAKVTVNELLTCCASWRRQPLVYNKEWRSSFMDAGKIFERVLPLVVTTIRAGDFRLEMYGVCRYCRKGMDVCGTSHQQTPHDLYKNEEDPIHFAKIAGYY
